Test results: patent US20230272055A1 (Incyte, published 2023)

T1: human mutCALR on BaF3 cells stably expressing human MPL and human mutCALR (MPL-mutCALR cells) (human)
T1 construct: also called mutant calreticulin
T1 chain: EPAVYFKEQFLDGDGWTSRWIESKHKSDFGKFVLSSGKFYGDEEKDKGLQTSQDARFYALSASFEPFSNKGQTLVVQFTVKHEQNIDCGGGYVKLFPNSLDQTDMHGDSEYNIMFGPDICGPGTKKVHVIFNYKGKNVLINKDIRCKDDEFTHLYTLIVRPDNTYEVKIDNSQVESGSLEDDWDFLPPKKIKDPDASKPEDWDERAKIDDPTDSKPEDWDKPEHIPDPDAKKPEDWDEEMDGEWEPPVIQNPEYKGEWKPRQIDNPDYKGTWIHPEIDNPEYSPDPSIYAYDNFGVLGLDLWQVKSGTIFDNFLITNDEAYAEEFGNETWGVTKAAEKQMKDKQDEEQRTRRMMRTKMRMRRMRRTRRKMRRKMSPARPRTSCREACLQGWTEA

T2: human Type 1 mutCALR on Ba/F3 cells expressing MPL and Type 1 mutCALR (human)
T2 chain: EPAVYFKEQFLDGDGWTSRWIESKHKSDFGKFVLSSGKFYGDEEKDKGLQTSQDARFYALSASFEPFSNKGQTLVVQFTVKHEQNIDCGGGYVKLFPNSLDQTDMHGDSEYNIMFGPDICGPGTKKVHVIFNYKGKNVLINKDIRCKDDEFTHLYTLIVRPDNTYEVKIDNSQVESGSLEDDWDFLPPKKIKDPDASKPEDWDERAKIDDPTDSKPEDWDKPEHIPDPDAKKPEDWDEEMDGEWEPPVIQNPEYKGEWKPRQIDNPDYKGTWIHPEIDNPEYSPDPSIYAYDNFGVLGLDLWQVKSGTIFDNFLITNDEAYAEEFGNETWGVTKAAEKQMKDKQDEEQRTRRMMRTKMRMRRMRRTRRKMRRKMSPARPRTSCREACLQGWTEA


Experiments:
[1] = target: T1, human mutCALR on BaF3 cells stably …; assay: flow cytometry, BaF3 MPL-mutCALR cells
Procedure: On the day of the assay, cells were washed and resuspended in assay buffer. Approximately 200,000 cells/well were added to 96-well plates and stained with the indicated concentration of antibodies for 30 minutes on ice. Cells were then washed and stained with goat anti-human secondary conjugated to R-phycoerythrin (R-PE) (Jackson Immuno Research Laboratories) for 30 minutes on ice. The cells were then washed and analyzed by flow cytometry.

[2] = target: T2, human Type 1 mutCALR on Ba/F3 cells …; assay: cell-based or functional assay

Binder	EC50 [1] [µg/mL]	MPL-mutCALR AUC [1]	IC50, inhibition of pSTAT5 [2] [µg/mL]
anti-mutCALR antibody clone 6 (antibody, human IgG1, lambda, human IgG1) heavy: not shown light: QSALTQPASVSGSPGQSITISCTGTSSDVGGYNYVSWYQQHPGKAPKLMIYEVSNRPSGVSNRFSGSNSGNTATLTINRVEAGDEADYYCQVWDSSNDLLIFGGGTKLTVLGQPKAAPSVTLFPPSSEELQANKATLVCLISDFYPGAVTVAWKADSSPVKAGVETTTPSKQSNNKYAASSYLSLTPEQWKSHRSYSCQVTHEGSTVEKTVAPTECS	0.3	58200	0.03
anti-mutCALR antibody clone 11 (antibody, human IgG1, lambda, V domains shown, human IgG1) VH: EVRLVQSGAEVKKPGASVKVSCKVSGYTLTELSMQWVRQAPGKGLEWMGGFDPDDGETMYAEKFQGRLTVTEDTSTDTVYMELRSLTSEDTALYFCATSPGYDFFDYWGQGTLVTVSS VL: QSALTQPRSVSGSPGQSVTISCTGTSSDVGGYNYVSWYQQHPGKAPKLMIYDVSKRPSGVPDRFSGSNSGNTATLTINRVEAGDEADYYCQVWDSSNDLLIFGGGTKLTVLG	0.05	69700	0.052
anti-mutCALR antibody clone 52 (antibody, human IgG1, kappa, V domains shown, human IgG1) VH: EVQLVQSGAEVKKPGASVKVSCKVSGYTLTELSMHWVRQAPGKGLEWMGLVDPEDGETIYAEKFQGRVTITADTSTDTAYMELSSPRSEDTAVYYCATTIGDDYFDYWGQGTLVTVSS VL: not shown	–	65800	0.346
anti-mutCALR antibody clone 30 (antibody, human IgG1, lambda, V domains shown, human IgG1) VH: EVQLVQSGAEVKKPGASVKVSCKVSGYTLTELSMQWVRQAPGKGLEWMGGFDPDDGETMYAEKFQGRLTVTEDTSTDTVYMELRSLTSEDTALYFCATSPGYDFFDYWGQGTLVTVSS VL: SYVLTQPPSVSVAPGKTATITCGGNNIGTKSVHWYQQKPGQAPVLVVYDDSDRPSGIPERFSGSNSGNTATLTINRVEAGDEADYYCQVWDSSNDLLIFGGGTKLTVLG	–	63800	0.054
anti-mutCALR antibody clone 37 (antibody, human IgG1, lambda, V domains shown, human IgG1) VH: QVQLVQSGAEVKKPGATVKISCKVSGYSFTDYFIHWVQQAPGKGLAWVGLVDPEDGETIYAEKFQGRVTITADTSTDTAYMELSSLRSEDTAVYYCATPGGILTDPDAFDIWGQGTMVTVSS VL: QSALTQPASVSGSPGQSITISCTGTSSDVGGYNYVSWYQQHPGKAPKLMIYDVSNRPSGVSNRFSGSKSGNTASLTISGLQAEDEADYYCSSYTSSSTFYVFGTGTKVTVLG	9.64	80900	0.039
anti-mutCALR antibody clone 34 (antibody, human IgG1, lambda, V domains shown, human IgG1) VH: QVQLVQSGAEVKKPGATVKISCKVSGYSFTDYFIHWVQQAPGKGLAWVGLVDPEDGETIYAEKFQGRVTITADTSTDTAYMELSSLRSEDTAVYYCATPGGILTDPDAFDIWGQGTMVTVSS VL: QSALTQPASVSGSPGQSITISCTGTSSDVGGYNYVSWYQQHPGKAPKLMIYEVSNRPSGVSNRFSGSKSGNTASLTISGLQAEDEADYYCSSYTSSSTYVFGTGTKVTVLG	0.02	71900	0.072
anti-mutCALR antibody clone 33 (antibody, human IgG1, lambda, V domains shown, human IgG1) VH: QVQLVQSGAEVKKPGATVKISCKVSGYSFTDYFIHWVQQAPGKGLAWVGLVDPEDGETIYAEKFQGRVTITADTSTDTAYMELSSLRSEDTAVYYCATPGGILTDPDAFDIWGQGTMVTVSS VL: QSALTQPRSVSGSPGQSVTISCAGTGSDVGGYNHVSWYQHHPGKAPKLMIYDVNKRPSGVPDRFSGSKSGNTASLTISGLQAEDEADYYCSSYIPSSTRWVFGGGTKLTVLG	0.15	38700	80.4
anti-mutCALR antibody clone 32 (antibody, human IgG1, lambda, V domains shown, human IgG1) VH: QVQLVQSGAEVKKPGATVKISCKVSGYSFTDYFIHWVQQAPGKGLAWVGLVDPEDGETIYAEKFQGRVTITADTSTDTAYMELSSLRSEDTAVYYCATPGGILTDPDAFDIWGQGTMVTVSS VL: QSALTQPASVSGSPGQSITISCTGTSSDVGGYNYVSWYQQHPGKAPKLMIYEVSNRPSGVSNRFSGSKSGNTASLTISGLQAEDEADYYCSSYTSSSTPYVFGTGTKVTVLG	0.01	52500	0.47
anti-mutCALR antibody clone 31 (antibody, human IgG1, lambda, V domains shown, human IgG1) VH: QVQLVQSGAEVKKPGATVKISCKVSGYSFTDYFIHWVQQAPGKGLAWVGLVDPEDGETIYAEKFQGRVTITADTSTDTAYMELSSLRSEDTAVYYCATPGGILTDPDAFDIWGQGTMVTVSS VL: QSALTQPASVSGSPGQSVTISCTGTSSDVGGYNYVSWYQHHPGKAPKLMIYDVNKRPSGVPDRFSGSKSGNTASLTISGLQAEDEADYYCSSYIPSSTRWVFGGGTKLTVLG	0.01	45700	26.8
anti-mutCALR antibody clone 36 (antibody, human IgG1, lambda, V domains shown, human IgG1) VH: QVQLVQSGAEVKKPGATVKISCKVSGYSFTDYFIHWVQQAPGKGLAWVGLVDPEDGETIYAEKFQGRVTITADTSTDTAYMELSSLRSEDTAVYYCATPGGILTDPDAFDIWGQGTMVTVSS VL: QSALTQPRSVSGSPGQSVTISCAGTGSDVGGYNYVSWYQHHPGKAPKLMIYDVNKRPSGVPDRFSGSKSGNTASLTISGLQAEDEADYYCSSYTSSSTFYVFGTGTKVTVLG	0.01	73800	0.092
anti-mutCALR antibody clone 35 (antibody, human IgG1, lambda, V domains shown, human IgG1) VH: QVQLVQSGAEVKKPGATVKISCKVSGYSFTDYFIHWVQQAPGKGLAWVGLVDPEDGETIYAERFQGRVTITADTSTDTAYMELSSLRSEDTAVYYCATPGGILTDPDAFDIWGQGTMVTVSS VL: QSALTQPASVSGSPGQSITISCTGTSSDVGGYNYVSWYQQHPGKAPKLMIYEVSNRPSGVSNRFSGSKSGNTASLTISGLQAEDEADYYCSSYTSSSTPYVFGTGTKVTVLG	0.02	62100	0.444
anti-mutCALR antibody clone 53 (antibody, human IgG1, lambda, V domains shown, human IgG1) VH: QVQLVQSGAEVKKPGASVKVSCKVSGYTLTELSMHWVRQAPGKGLEWMGGFDPEDGETIYAQKFQGRVTMTEDTSTDTAYMELSSLRSEDTAVYYCATDIQGLAEFDYWGQGTLVTVSS VL: QSALTQPRSVSGSPGQSVTISCTGTNTDVGAYIDVSWYQQHPGKAPKLIIYDVSKWPSGVPDRFSGSKSGNTASLTISGLQAEDEADYYCCSYAGNHSFSFGGGTKVTVLG	0.02	64600	0.402
anti-mutCALR antibody clone 48 (antibody, human IgG1, lambda, V domains shown, human IgG1) VH: EVQLVQSGAEVKKPGSSVKVSCKASGGTFSSYAISWVRQAPGQGLEWMGGIIPIFGTANYAQKFQGRVTITADESTSTAYMELSSLRSEDTAVYYCASSPLRGSGWYWHYYYGMDVWGQGTTVTVSS VL: SYVLTQPPSVSVAPGKTARITCGGNNIGSKSVHWYQQKPGQAPVLVIYQDRKRPSGIPERFSGSNSGNTATLTISGTQAMDEADYYCQAWDSSTAVFGGGTKLTVLG	–	30300	2.6
anti-mutCALR antibody clone 38 (antibody, human IgG1, kappa, V domains shown, human IgG1) VH: EVQPVQSGAEVKKPGSSVKVSCKASGGTFSSYAISWVRQAPGQGLEWMGLVDPEDGETIYAEKFRGRVTITADTSTDTAYMELSSLRSEDTAVYYCATEESYGPWGQGTLVTVSS VL: DIQLTQSPSSLSASVGDRVTITCQASQDISNYLNWYQQKPGKAPKLLIYDASNLETGVPSRFSGSGSGTEFTLTISSLQPEDFATYYCQQLNSYPLTFGGGTKLEIKR	1.44	37000	3.55
anti-mutCALR antibody clone 39 (antibody, human IgG1, kappa, V domains shown, human IgG1) VH: EVQLVQSGAEVKKPGSSVKVSCKASGGTFSSYAISWVRQAPGQGLEWMGLVDPEDGETIYAEKFQGRVTITADTSTDTAYMELSSLRSEDTAVYYCATEESYGPWGQGTLVTVSS VL: DIQLTQSPSSLSASVGDRVTITCQASQDISNYLDWYQQKPGKAPKLLIYDASNLETGVPSRFSGSGSGTEFTLTISSLQPEDFATYYCQQLNSYPLTFGGGTKLEIKR	–	51500	3.97
anti-mutCALR antibody clone 41 (antibody, human IgG1, lambda, V domains shown, human IgG1) VH: EVQLVQSGAEVKKPGASVKVSCKVSGYTLTELSMHWVRQAPGKGLEWMGLVDPEDGETIYAQKFQGRVTMTEDTSTDTAYMELSSLRSEDTAVYYCAREEWSGDGDDAFDIWGQGTMVTVSS VL: QSVLTQPPSVSAAPGQKVTISCSGSSSNIGSYSVSWYQQLPGTAPKLLIYDNNKRPSGIPDRFSGSNSGTSATLGITGLQTGDEADYYCGTWDSSLSAWVFGGGTKLTVLG	–	60600	0.364
anti-mutCALR antibody clone 42 (antibody, human IgG1, lambda, V domains shown, human IgG1) VH: EVQLVQSGAEVKKPGASVKVSCKVSGYTLTELSMHWVRQAPGKGLEWMGLVDPEDGETIYAQKFQGRVTMTEDTSTDTAYMELSSLRSEDTAVYYCAREEWSGDGDDAFDIWGQGTMVTVSS VL: QSVLTQPPSVSAAPGQKVTISCSGSSSNIGSYSVSWYQQLPGTAPKLLIYDDNKRPSGIPDRFSGSNSGTSATLSITGLQTGDEADYYCGTWDSSLSAWVFGGGTKLTVLG	–	61300	0.196
anti-mutCALR antibody clone 40 (antibody, human IgG1, lambda, V domains shown, human IgG1) VH: EVQLVQSGAEVKKPGASVKVSCKVSGYTLTESSMHWVRQAPGKGLEWMGLVDPEDGETIYAQKFQGRVTMTEDTSTDTAYMELSSLRSEDTAVYYCAREEWSGDGDDAFDIWGQGTMVTVSS VL: QSVLTQPPSVSAAPGQKVTISCSGSSSNIGSYSVSWYQQLPGTAPKLLIYDNNKRPSGIPDRFSGSNSGTSATLGITGLQTGDEADYYCGTWDSSLSAWVFGGGTKLTVLG	0.07	52900	0.742
